# Patent US20260167721A1 (ABLEXIS, published 2026)
# Tests used:
# [1] = target: T1, CD3 on human donor PBMC / Pan T effector cells (human, UniProt P07766 23-207; P09693 23-182; P04234 22-171; P20963 22-164); test: cell-based or functional assay
# [2] = target: T1, CD3 on human donor PBMC / Pan T …; test: cell-based or functional assay; remark: listed apart in the source
# T1 sequence (P07766 23-207, chain 1 of 4): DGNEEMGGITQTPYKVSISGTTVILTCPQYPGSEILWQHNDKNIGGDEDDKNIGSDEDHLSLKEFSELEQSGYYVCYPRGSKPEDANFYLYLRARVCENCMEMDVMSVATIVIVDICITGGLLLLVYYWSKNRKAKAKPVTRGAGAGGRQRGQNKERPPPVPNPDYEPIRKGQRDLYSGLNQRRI
# T1 sequence (P09693 23-182, chain 2 of 4): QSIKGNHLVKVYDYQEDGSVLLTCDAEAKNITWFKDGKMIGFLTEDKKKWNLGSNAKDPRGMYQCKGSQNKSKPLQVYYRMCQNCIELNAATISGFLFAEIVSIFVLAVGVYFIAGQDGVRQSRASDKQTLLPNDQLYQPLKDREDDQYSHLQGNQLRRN
# T1 sequence (P04234 22-171, chain 3 of 4): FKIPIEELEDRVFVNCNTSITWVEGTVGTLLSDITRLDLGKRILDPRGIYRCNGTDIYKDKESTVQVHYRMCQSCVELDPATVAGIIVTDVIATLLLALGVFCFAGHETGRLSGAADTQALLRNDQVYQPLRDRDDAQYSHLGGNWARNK
# T1 sequence (P20963 22-164, chain 4 of 4): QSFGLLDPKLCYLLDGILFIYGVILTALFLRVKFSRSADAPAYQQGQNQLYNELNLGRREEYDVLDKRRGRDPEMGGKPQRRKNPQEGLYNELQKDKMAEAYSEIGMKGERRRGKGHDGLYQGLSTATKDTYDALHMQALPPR
Binder,Cytokine Release Assay (IL2) Donor 0 EC50 [1],Cytokine Release Assay (IL2) Donor 0 gMFI max [1],Cytokine Release Assay (IL2) Donor 1 EC50 [1],Cytokine Release Assay (IL2) Donor 1 gMFI max [1],Cytokine Release Assay (IL2) Donor 2 EC50 [1],Cytokine Release Assay (IL2) Donor 2 gMFI max [1],Cytokine Release Assay (IL2) Donor 3 EC50 [1],Cytokine Release Assay (IL2) Donor 3 gMFI max [1],Cytokine Release Assay (TNFα) Donor 0 EC50 [2],Cytokine Release Assay (TNFα) Donor 0 gMFI max [2],Cytokine Release Assay (TNFα) Donor 1 gMFI max [2],Cytokine Release Assay (TNFα) Donor 2 EC50 [2],Cytokine Release Assay (TNFα) Donor 2 gMFI max [2],Cytokine Release Assay (TNFα) Donor 3 EC50 [2],Cytokine Release Assay (TNFα) Donor 3 gMFI max [2],Cytokine Release Assay (TNFα) Donor 1 EC50 [2]
CD3 × CD33-BspAb73 (bispecific antibody) chain 1: EVQLVESGGGLVKPGGSLRLSCAASGFTFSSYSMNWVRQAPGKCLEWVSSVNSRGSYIYYADSVKGRFTISRDNAKDSLYLQMNSLRADDTAVYYCARDRRELLLDYWGQGTLVTVSSGGGGSGGGGSGGGGSGGGGSSYELTQPPSVSVSPGQTARITCSGDALPKKYAYWYQQKSGQAPVLVIYEDSKRPSGIPERFSGSSSGTMATLTISGAQVEDEADYYCYSTDSSGNHSWVFGCGTKLTVLDKTHTCPPCPAPEFEGGPSVFLFPPKPKDTLMISRTPEVTCVVVDVSHEDPEVKFNWYVDGVEVHNAKTKPREEQYNSTYRVVSVLTVLHQDWLNGKEYKCKVSNKALPASIEKTISKAKGQPREPQVYTLPPCREEMTKNQVSLWCLVKGFYPSDIAVEWESNGQPENNYKTTPPVLDSDGSFFLYSKLTVDKSRWQQGNVFSCSVMHEALHNHYTQKSLSLSPGK chain 2: EVQLVQSGAEVKKPGSSVKVSCKASGYTITDSNIHWVRQAPGQSLEWIGYIYPYNGGTDYNQKFKNRATLTVDNPTNTAYMELSSLRSEDTAFYYCVNGNPWLAYWGQGTLVTVSSASTKGPSVFPLAPSSKSTSGGTAALGCLVKDYFPEPVTVSWNSGALTSGVHTFPAVLQSSGLYSLSSVVTVPSSSLGTQTYICNVNHKPSNTKVDKRVEPKSCDKTHTCPPCPAPEFEGGPSVFLFPPKPKDTLMISRTPEVTCVVVDVSHEDPEVKFNWYVDGVEVHNAKTKPREEQYNSTYRVVSVLTVLHQDWLNGKEYKCKVSNKALPASIEKTISKAKGQPREPQVCTLPPSREEMTKNQVSLSCAVKGFYPSDIAVEWESNGQPENNYKTTPPVLDSDGSFFLVSKLTVDKSRWQQGNVFSCSVMHEALHNRFTQKSLSLSPGK chain 3: DIQLTQSPSTLSASVGDRVTITCRASESLDNYGIRFLTWFQQKPGKAPKLLMYAASNQGSGVPSRFSGSGSGTEFTLTISSLQPDDFATYYCQQTKEVPWSFGQGTKVEVKRTVAAPSVFIFPPSDEQLKSGTASVVCLLNNFYPREAKVQWKVDNALQSGNSQESVTEQDSKDSTYSLSSTLTLSKADYEKHKVYACEVTHQGLSSPVTKSFNRGEC,0.104 nM,29000 gMFI,0.373 nM,15900 gMFI,26.5 nM,32500 gMFI,0.24 nM,42900 gMFI,0.759 nM,28000 gMFI,4400 gMFI,1.01 nM,14300 gMFI,0.653 nM,24200 gMFI,–
CD3 × CD33-BspAb72 (bispecific antibody) chain 1: EVQLVESGGGLVQPGGSLRLSCAASGFTFSSYSMNWVRQAPGKCLEWVSYISSSSSTIYYADSVKGRFTISRDNAKNSLYLQMNSLRDEDTAVYYCARDGPVDYGMDVWGQGTTVTVSSGGGGSGGGGSGGGGSGGGGSSYELTQPPSVSVSPGQTARITCSGDALPKQYTYWYQQKPGQAPVLVIYKDSERPSGIPERFSGSSSGTTVTLTISGVQAEDEADYYCQSADSSGTYRVFGCGTKLTVLDKTHTCPPCPAPEFEGGPSVFLFPPKPKDTLMISRTPEVTCVVVDVSHEDPEVKFNWYVDGVEVHNAKTKPREEQYNSTYRVVSVLTVLHQDWLNGKEYKCKVSNKALPASIEKTISKAKGQPREPQVYTLPPCREEMTKNQVSLWCLVKGFYPSDIAVEWESNGQPENNYKTTPPVLDSDGSFFLYSKLTVDKSRWQQGNVFSCSVMHEALHNHYTQKSLSLSPGK chain 2: EVQLVQSGAEVKKPGSSVKVSCKASGYTITDSNIHWVRQAPGQSLEWIGYIYPYNGGTDYNQKFKNRATLTVDNPTNTAYMELSSLRSEDTAFYYCVNGNPWLAYWGQGTLVTVSSASTKGPSVFPLAPSSKSTSGGTAALGCLVKDYFPEPVTVSWNSGALTSGVHTFPAVLQSSGLYSLSSVVTVPSSSLGTQTYICNVNHKPSNTKVDKRVEPKSCDKTHTCPPCPAPEFEGGPSVFLFPPKPKDTLMISRTPEVTCVVVDVSHEDPEVKFNWYVDGVEVHNAKTKPREEQYNSTYRVVSVLTVLHQDWLNGKEYKCKVSNKALPASIEKTISKAKGQPREPQVCTLPPSREEMTKNQVSLSCAVKGFYPSDIAVEWESNGQPENNYKTTPPVLDSDGSFFLVSKLTVDKSRWQQGNVFSCSVMHEALHNRFTQKSLSLSPGK chain 3: DIQLTQSPSTLSASVGDRVTITCRASESLDNYGIRFLTWFQQKPGKAPKLLMYAASNQGSGVPSRFSGSGSGTEFTLTISSLQPDDFATYYCQQTKEVPWSFGQGTKVEVKRTVAAPSVFIFPPSDEQLKSGTASVVCLLNNFYPREAKVQWKVDNALQSGNSQESVTEQDSKDSTYSLSSTLTLSKADYEKHKVYACEVTHQGLSSPVTKSFNRGEC,8.21 nM,23000 gMFI,4.28 nM,17300 gMFI,2.16 nM,16400 gMFI,8.36 nM,26300 gMFI,–,23400 gMFI,4410 gMFI,16.9 nM,8010 gMFI,42.5 nM,11200 gMFI,–

# More lines, now with the values ahead:
Cytokine Release Assay (IL2) Donor 0 EC50 [1],Cytokine Release Assay (IL2) Donor 0 gMFI max [1],Cytokine Release Assay (IL2) Donor 1 EC50 [1],Cytokine Release Assay (IL2) Donor 1 gMFI max [1],Cytokine Release Assay (IL2) Donor 2 EC50 [1],Cytokine Release Assay (IL2) Donor 2 gMFI max [1],Cytokine Release Assay (IL2) Donor 3 EC50 [1],Cytokine Release Assay (IL2) Donor 3 gMFI max [1],Cytokine Release Assay (TNFα) Donor 0 EC50 [2],Cytokine Release Assay (TNFα) Donor 0 gMFI max [2],Cytokine Release Assay (TNFα) Donor 1 gMFI max [2],Cytokine Release Assay (TNFα) Donor 2 EC50 [2],Cytokine Release Assay (TNFα) Donor 2 gMFI max [2],Cytokine Release Assay (TNFα) Donor 3 EC50 [2],Cytokine Release Assay (TNFα) Donor 3 gMFI max [2],Cytokine Release Assay (TNFα) Donor 1 EC50 [2],Binder
4.13 nM,34400 gMFI,4.24 nM,18800 gMFI,6.46 nM,22100 gMFI,3.52 nM,42100 gMFI,2.15 nM,34100 gMFI,4900 gMFI,2.19 nM,10900 gMFI,5.58 nM,25200 gMFI,–,CD3 × CD33-BspAb86 (bispecific antibody) chain 1: EVQLVESGGGLVKPGGSLRLSCAASGFTFSSYSMNWVRQAPGKCLEWVSSISRSGTYIYYADSVKGRFTISRDNAKNSLYLQMNSLRAEDTAVYYCARERWELLYFDYWGQGTLVTVSSGGGGSGGGGSGGGGSGGGGSQTVVTQEPSLTVSPGGTVTLTCASSTGAVTSGYYPNWFQQKPGQAPRALIYSTSNKHSWTPARFSGSLLGGKAALTLSGVQPEDEAEYYCLLYYGGAYVFGCGTKVTVLDKTHTCPPCPAPEFEGGPSVFLFPPKPKDTLMISRTPEVTCVVVDVSHEDPEVKFNWYVDGVEVHNAKTKPREEQYNSTYRVVSVLTVLHQDWLNGKEYKCKVSNKALPASIEKTISKAKGQPREPQVYTLPPCREEMTKNQVSLWCLVKGFYPSDIAVEWESNGQPENNYKTTPPVLDSDGSFFLYSKLTVDKSRWQQGNVFSCSVMHEALHNHYTQKSLSLSPGK chain 2: EVQLVQSGAEVKKPGSSVKVSCKASGYTITDSNIHWVRQAPGQSLEWIGYIYPYNGGTDYNQKFKNRATLTVDNPTNTAYMELSSLRSEDTAFYYCVNGNPWLAYWGQGTLVTVSSASTKGPSVFPLAPSSKSTSGGTAALGCLVKDYFPEPVTVSWNSGALTSGVHTFPAVLQSSGLYSLSSVVTVPSSSLGTQTYICNVNHKPSNTKVDKRVEPKSCDKTHTCPPCPAPEFEGGPSVFLFPPKPKDTLMISRTPEVTCVVVDVSHEDPEVKFNWYVDGVEVHNAKTKPREEQYNSTYRVVSVLTVLHQDWLNGKEYKCKVSNKALPASIEKTISKAKGQPREPQVCTLPPSREEMTKNQVSLSCAVKGFYPSDIAVEWESNGQPENNYKTTPPVLDSDGSFFLVSKLTVDKSRWQQGNVFSCSVMHEALHNRFTQKSLSLSPGK chain 3: DIQLTQSPSTLSASVGDRVTITCRASESLDNYGIRFLTWFQQKPGKAPKLLMYAASNQGSGVPSRFSGSGSGTEFTLTISSLQPDDFATYYCQQTKEVPWSFGQGTKVEVKRTVAAPSVFIFPPSDEQLKSGTASVVCLLNNFYPREAKVQWKVDNALQSGNSQESVTEQDSKDSTYSLSSTLTLSKADYEKHKVYACEVTHQGLSSPVTKSFNRGEC
0.121 nM,33000 gMFI,0.442 nM,23100 gMFI,0.222 nM,32600 gMFI,0.0926 nM,49700 gMFI,0.114 nM,44800 gMFI,5490 gMFI,0.0497 nM,18400 gMFI,0.0635 nM,26600 gMFI,0.647 nM,CD3 × CD33-BspAb85 (bispecific antibody) chain 1: EVQLVESGGGLVKPGGSLRLSCAASGFTFSSYSMNWVRQAPGKCLEWVSSISRSSGYIFYADSVKGRFTISRDNAKNSLYLQMNSLRAEDTAVYYCVRERVGAGFDYWGQGTLVTVSSGGGGSGGGGSGGGGSGGGGSNFMLTQPHSVSESPGKTVAISCTRSSGSIASNYVQWYQQRPGSSPTAVIYEDNQRPSGVPDRFSGSIDSSSNSAFLTISGLKTEDEADYYCQSYDSSNRVFGCGTKLTVLDKTHTCPPCPAPEFEGGPSVFLFPPKPKDTLMISRTPEVTCVVVDVSHEDPEVKFNWYVDGVEVHNAKTKPREEQYNSTYRVVSVLTVLHQDWLNGKEYKCKVSNKALPASIEKTISKAKGQPREPQVYTLPPCREEMTKNQVSLWCLVKGFYPSDIAVEWESNGQPENNYKTTPPVLDSDGSFFLYSKLTVDKSRWQQGNVFSCSVMHEALHNHYTQKSLSLSPGK chain 2: EVQLVQSGAEVKKPGSSVKVSCKASGYTITDSNIHWVRQAPGQSLEWIGYIYPYNGGTDYNQKFKNRATLTVDNPTNTAYMELSSLRSEDTAFYYCVNGNPWLAYWGQGTLVTVSSASTKGPSVFPLAPSSKSTSGGTAALGCLVKDYFPEPVTVSWNSGALTSGVHTFPAVLQSSGLYSLSSVVTVPSSSLGTQTYICNVNHKPSNTKVDKRVEPKSCDKTHTCPPCPAPEFEGGPSVFLFPPKPKDTLMISRTPEVTCVVVDVSHEDPEVKFNWYVDGVEVHNAKTKPREEQYNSTYRVVSVLTVLHQDWLNGKEYKCKVSNKALPASIEKTISKAKGQPREPQVCTLPPSREEMTKNQVSLSCAVKGFYPSDIAVEWESNGQPENNYKTTPPVLDSDGSFFLVSKLTVDKSRWQQGNVFSCSVMHEALHNRFTQKSLSLSPGK chain 3: DIQLTQSPSTLSASVGDRVTITCRASESLDNYGIRFLTWFQQKPGKAPKLLMYAASNQGSGVPSRFSGSGSGTEFTLTISSLQPDDFATYYCQQTKEVPWSFGQGTKVEVKRTVAAPSVFIFPPSDEQLKSGTASVVCLLNNFYPREAKVQWKVDNALQSGNSQESVTEQDSKDSTYSLSSTLTLSKADYEKHKVYACEVTHQGLSSPVTKSFNRGEC
